Measured values reported in patent US20130078234A1 (Daiichi Sankyo, published 2013).
Changes are numbered by the printed parent chain.

T1: extracellular domain polypeptide of a recombinant B7-H3 variant 2 antigen (R&D Systems, Inc., #2318-B3-050/CF) (human, UniProt Q5ZPR3 29-466)
T1 construct: Bought recombinant protein; also called recombinant B7-H3 antigen; B7-H3 antigen
T1 sequence: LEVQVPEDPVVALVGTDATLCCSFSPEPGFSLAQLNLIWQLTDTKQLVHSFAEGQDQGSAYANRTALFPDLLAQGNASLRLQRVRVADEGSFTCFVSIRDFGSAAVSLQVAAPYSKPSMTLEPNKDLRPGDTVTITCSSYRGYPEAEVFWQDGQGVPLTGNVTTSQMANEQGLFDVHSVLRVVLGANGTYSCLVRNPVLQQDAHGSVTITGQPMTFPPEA

B1: humanized M30 antibody M30-H1-L4 (antibody, human IgG1, kappa, V domains shown)
VH: QVQLVQSGAEVKKPGSSVKVSCKASGYTFTNYVMHWVRQAPGQGLEWMGYINPYNDDVKYNEKFKGRVTITADESTSTAYMELSSLRSEDTAVYYCARWGYYGSPLYYFDYWGQGTLVTVSS
VL: EIVLTQSPATLSLSPGERATLSCRASSRLIYMHWYQQKPGQAPRPLIYATSNLASGIPARFSGSGSGTDFTLTISSLEPEDFAVYYCQQWNSNPPTFGQGTKVEIKR
notes: Human IgG1/kappa; also called M30-H1-L4 antibody
B2: chimeric antibody M30 (antibody, human IgG1, kappa)
heavy: not shown
light: QIVLSQSPTILSASPGEKVTMTCRASSRLIYMHWYQQKPGSSPKPWIYATSNLASGVPARFSGSGSGTSYSLTISRVEAEDAATYYCQQWNSNPPTFGTGTKLELKRTVAAPSVFIFPPSDEQLKSGTASVVCLLNNFYPREAKVQWKVDNALQSGNSQESVTEQDSKDSTYSLSSTLTLSKADYEKHKVYACEVTHQGLSSPVTKSFNRGEC
notes: Mouse M30 variable regions on human IgG1 / human kappa constant regions; also called cM30; cM30 antibody
B3: humanized M30 antibody M30-H1-L1 (antibody, human IgG1, kappa, V domains shown)
VH: B1 VH
VL: B1 VL with P45L, S76R
notes: Human IgG1/kappa
B4: humanized M30 antibody M30-H4-L3 (antibody, human IgG1, kappa, V domains shown)
VH: B1 VH with Q1E, R38K, M48I, R67K, V68A, I70Q, A72S, E74K
VL: B1 VL with E1Q, T5S, S22T, Q41S, R44K, P45L, L46W, D69S, F70Y, S76R
notes: Human IgG1/kappa
B5: humanized M30 antibody M30-H1-L2 (antibody, human IgG1, kappa, V domains shown)
VH: B1 VH
VL: B1 VL with P45L, L46W, F70Y, S76R
notes: Human IgG1/kappa
B6: humanized M30 antibody M30-H1-L3 (antibody, human IgG1, kappa, V domains shown)
VH: B1 VH
VL: B1 VL with E1Q, T5S, S22T, Q41S, R44K, P45L, L46W, D69S, F70Y, S76R
notes: Human IgG1/kappa
B7: humanized M30 antibody M30-H1-L5 (antibody, human IgG1, kappa, V domains shown)
VH: B1 VH
VL: B1 VL with E1Q, T5S, S22T, Q41S, R44K, L46W, D69S, F70Y, S76R
notes: Human IgG1/kappa
B8: humanized M30 antibody M30-H4-L1 (antibody, human IgG1, kappa, V domains shown)
VH: B1 VH with Q1E, R38K, M48I, R67K, V68A, I70Q, A72S, E74K
VL: B1 VL with P45L, S76R
notes: Human IgG1/kappa
B9: humanized M30 antibody M30-H1-L7 (antibody, human IgG1, kappa, V domains shown)
VH: B1 VH
VL: B1 VL with F70Y, S76R
notes: Human IgG1/kappa
B10: humanized M30 antibody M30-H1-L6 (antibody, human IgG1, kappa, V domains shown)
VH: B1 VH
VL: B1 VL with S76R
notes: Human IgG1/kappa
B11: humanized M30 antibody M30-H4-L4 (antibody, human IgG1, kappa, V domains shown)
VH: B1 VH with Q1E, R38K, M48I, R67K, V68A, I70Q, A72S, E74K
VL: B1 VL
notes: Human IgG1/kappa
B12: humanized M30 antibody M30-H4-L2 (antibody, human IgG1, kappa, V domains shown)
VH: B1 VH with Q1E, R38K, M48I, R67K, V68A, I70Q, A72S, E74K
VL: B1 VL with P45L, L46W, F70Y, S76R
notes: Human IgG1/kappa

Each binder was assayed against T1, extracellular domain polypeptide of a … (assay: competition ELISA on plate-coated B7-H3 variant 2 extracellular domain polypeptide; competitor biotinylated M30 (bM30, 5 ug/ml), detected with streptavidin-HRP, OD 450 nm).
Description: Each of the extracellular domain polypeptide of the B7-H3 variant 1 (manufactured by R&D Systems, Inc., #1949-B3-050/CF) and the extracellular domain polypeptide of the B7-H3 variant (manufactured by R&D Systems, Inc., #2318-B3-050/CF) was diluted to 0.5 μg/ml with a coating buffer and the resulting solution was dispensed at 100 μL/well in an immunoplate (manufactured by Nunc, Inc., #442404). Then, the plate was left to stand overnight at 4° C., whereby the protein was adsorbed to the plate. On the next day, an assay diluent was dispensed at 200 μL/well, and the plate was left to stand at room temperature for 4 hours.

IC50 (read off the curve) [µg/mL]	Binder
~0.5	B1
~0.4	B2

The binders below were run against T1, extracellular domain polypeptide of a … (assay: SPR (Biacore), antibody captured on anti-human IgG, B7-H3 variant 2 extracellular domain as analyte).
Description: (§1) The binding property of the humanized M30 antibody to human B7-H3 which is an antigen was measured by a surface plasmon resonance (SPR) device (Biacore, Inc.). According to a common procedure, an anti-human IgG antibody was immobilized on a sensor chip, and then, each of the purified samples of the humanized M30 antibodies obtained in the above 10)-4 was bound thereto. Thereafter, an extracellular domain polypeptide of the B7-H3 variant 2 antigen (manufactured by R&D Systems, Inc., #2318-B3-050/CF) was added thereto at different concentrations, and the amount of the antigen bound to the antibody in a running buffer (phosphate buffer, 0.05% SP20) was measured over time. The measured amount was analyzed with a dedicated software (BIAevaluation) and a dissociation constant (Kd [M]) was calculated. The measurement was performed using the cM30 antibody as a positive control for each measurement operation.

Kd [nM]	Binder
87	B3
160	B4
100	B5
100	B6
16	B1
1.9	B7
130	B8
2.7	B9
3.4	B10
12	B11
140	B12

What follows are binders tested against T1, extracellular domain polypeptide of a … (assay: SPR (Biacore), antibody captured on anti-human IgG, B7-H3 variant 2 extracellular domain as analyte; positive control).
Description: as §1

Kd [nM]	Binder
0.73	B2

These binders were tested against T1, extracellular domain polypeptide of a … (assay: SPR, antibody captured on immobilized anti-human IgG, B7-H3 variant 2 extracellular domain as analyte; cM30 chimeric antibody, captured on anti-human IgG; experiment 8)-1).
Description: The affinity between the M30 antibody or the cM30 antibody and the B7-H3 antigen was measured by a surface plasmon resonance (SPR) device (GE Healthcare Corporation). According to a common procedure, an anti-mouse IgG or an anti-human IgG antibody was immobilized on a sensor chip, and then, the M30 antibody sample or the cM30 antibody was bound thereto. Thereafter, an extracellular domain polypeptide of a recombinant B7-H3 variant 2 antigen (manufactured by R&D Systems, Inc., #2318-B3-050/CF) was added thereto at different concentrations, and the amount of the antigen bound to the antibody in a running buffer (phosphate buffer, 0.05% SP20) was measured over time. The measured amount was analyzed with a dedicated software (BIAevaluation Version 4.1, GE Healthcare Corporation) and a dissociation constant was calculated.

Kd [nM]	Binder
3.43	B2
